Assay results from the DeepSol protein solubility set.

test: soluble on expression in E. coli; label from the status in PepcDB or PDB records

Sequence | soluble on expression in E. coli
MSLGKKDKRWVLQRKNDHYYNLAKKRNYRSRATYKLFQLNEKFNLIKERNVVVDLGCAPGGWLQAARDIVGDKGFIVGIDLQTVKPLPYENVIAIKGDMTKEEILKQARDLLPEKPDVIICDASPNISGVWDVDHARSLELTTMALMTATKMLKKGGNFVVKVFQGDLFEKYVQLVSEYFDKAFTTKPRASRDESAEVYVIGKRFNGRKFDMNSKSPIVKLLDTNPKENEITSPSLRKDISKEDSGLMIKRIKEMRSKKEGHHHHHH | soluble
MSLVEDGKATLGLRNFYINRNFTNPSNPQSKAEEWTQSFILDARSGFTEGPIGFGVDVLGLWSVKLDGGGGTYGTALLPRHDDGRPADDYGRLAVAGKARISKTELKIGEWMPVLPILRSDDGRSLPQTFRGGQVTSNEIAGLTLYGGQFRGNSPRNDASMEDMSYGGGVSDRFNFVGGEYKFNQDRTQVGLWNAVLKDVYQQQYLQLSHSQPVGDWTLGANLGYFHGDEDGSERAGQLDNKTYSGMFSAKYGGSTFWVGLQKVDGDTWMRVNGTSGGTLANDSYNSSFDNANERSWQVRHDFNFVTVGVPGLTLMNRYISGRDVHSGGVTDGKEWVRETELAYVIQSGAFKDLSVKWRNSSIRRDYSNNEFDENRLIFNYPLSLLEGHHHHHH | soluble
MAPGTAELEIDETLHLLRMVMQREFIHYLETLPGTKELFIDKCLLRPLDMIATSSDMKRHGVKRIMHFDLQKSPQVWNIEIDQRVFFLRPNVENARKIVEYVEESSENRSICVIWCNRQLEECDLAFESSGVIGHITQLSLNMCLLPLESDLFSLQHVESAQPDLFSVANMFVALQNLYGVIPTVYGLGSESKNLWNLVHALCSSNELRARPDQPISHLFLFDRQLDPVPVLLTGASYEGLLHEFFTIDCGKLAFPVDLRKQVQTGPLDFDWIEINPEEDKEAHQQNRGDTVKLDNCEDIFASIRNKHVTAALEFLHSKAKSIQKSIEKSSMIDDVADYRNFVEKDLRALKKDHKHCELHINACEMMMNKVKMEDYRTMFKLEHEMLLGTVTHEEYFDFVFERVPMRSCRDVVLSMMSLASLKLDGVPDDTYNEFVEMYLQKYGYEHMFELQNLRNSRVIYARRHIAHDRTISERARTWETLARKFRIVKGNEPMDMSNPSDMSYVFGARISPLLCKIVEDTIDHGWNQAEYERIIGKDKVLVEENTYIAADRRPDNRTRKAIMVFVNGGITYWEVAALRLLAIQKNFRILICTTHVIKKREYLEVRAKDASSVFGS | not soluble
QIDYMTNSDMGYDYRNKLIIDVFGLDPQIVSTMRTEIAKIPGITGIGLTRGTPLNGGNNNSSEYRGRPLSMQIFSIDSVALSLFDLKMKPNGRKADKPDRTLYLSRSAYNDFDVANLPDGVIHWGKAGEFYYCGDAPEVHFGGFKEPHPSYLFIPYPQSSAWSWSVLVGYSEGADPEQLIQSIQAVYSRITGQPYTEILRSEDIIASHSEEERSLS | not soluble
MIPMEELKVKKITNGTVIDHIDAGKALMVFKVLNVPKETSVMIAINVPSKKKGKKDILKIEGIELKKEDVDKISLISPDVTINIIRNGKVVEKLKPQIPDEIEGTLKCTNPNCITNKEKVRGKFKIESKNPLKIRCYYCEKFLNEVIFE | soluble
LALLYEVTCLNKPGLVDPVDAGAHQDMDVFTFLESSVVLTPYFETFVQAGTELRHLPIEATFRTIRQVGLEAERAMFEATEGINTHKGAIFSLGIFLAVCGRLMIWETPCTLQLFQQTLQTMTQDLLADFENLATNELEKLTWGERLFVQHGLTGIRGEAQQGYPAVFEQGVPYYQKHQGTQQQKLIDTLLYLSLYVEDTNLIKRSQNVQIFEVYQPLIQEYFALGGTQTLRGTLCLERLNHLFKEKNWSIGGSADALILVV | not soluble
MGSDKIHHHHHHMSNLSLDFSHNEFQPLAARMRPATLAQYIGQQHLLGAGKPLPRAIEAGQLHSMILWGPPGTGKTTLAELIGHYGQADVERISAVTSGIKEIREAIERARQNRNAGRRTILFVDEVHRFNKSQQDAFLPHIEDGTITFIGATTENPSFELNSALLSRARVYLLKALMAEDIEQVLLQAMSDSERGYGGLNIVLPAETGRMLAELVNGDARRALNSLEMMADMAEIDAQGMRILTPALLNEIAGERSARFDNKGDRYYDLISALHKSVRGSAPDAALYWYARIITAGGDPLYVARRLLAIASEDVGNADPRAMQVAISAWDCFTRVGPAEGERAIAQAIVYLACAPKSNAVYSAFKAAMQDAREKPDYDVPEHLCNAPTRLMKEMGLGAEYRYAHNEPNAYAAGESYFPPEMADTHYYAPTSRGLEGKIGEKLAWLATQDQNSPTKRYR | not soluble
MAEPARARPKITPETQHYWDGAKQGELRLQRCDSCAHAYFPPRPFCPKCGSREVSVFKASGKGTLYSYVINHRPLAAGFTEPYAIAVVELEEGPRMMSNILECPQTPEALELDMKLEVTFQKIDDNLTLPQFRPAKG | not soluble
MIKEAIKQLAQDIGISKIGFTTADDFDYLEKSLRASVEEGRSSGFEHKNIEERIKPRLSLASAKTIISIAIAYPHKLPVKPPKTQYKRGKITPNSWGLDYHYVLEEKLQRLAQGIESLCQDFPLEHKIMVDTGALVDTAVAQRSGIGFIGKNGLVISKEFGSYMYLGELITNLEIEPDSPVDYDCGDCHRCLDACPTSCLLGDGSMNAKRCLSFQTQDKGMMDLEFRKKIKTVIYGCDICQICCPYNKGIHNPLASEIDPELAEPELLPFLELSNSQFKKKFGMIAGSWRGKNTLQRNAIIALANGHDKSALVKLMEIIDKNNNPIHTATAIWALGEIVKKPTQELYDFILSIHSDNDAIIKERTALLNRWQF | not soluble
MGHPPLLPLLLLLHTCVPASWGLRCMQCKTNGDCRVEECALGQDLCRTTIVRLWEEGEELELVEKSCTHSEKTNRTLSYRTGLKITSLTEVVCGLDLCNQGNSGRAVTYSRSRYLECISCGSSDMSCERGRHQSLQCRSPEEQCLDVVTHWIQEGEEGRPKDDRHLRGCGYLPGCPGSNGFHNNDTFHFLKCCNTTKCNEGPILELENLPQNGRQCYSCKGNSTHGCSSEETFLIDCRGPMNQCLVATGTHEPKNQSYMVRGCATASMCQHAHLGDAFSMNHIDVSCCTKSGCNHPDLDVQYRSGAAPQPGPAHLSLTITLLMTARLWGGTLLWT | not soluble
MAHHHHHHMDFVKELKSSQDYMNNELTYGAHNYDPIPVVLKRGKGVFVYDIEDRRYYDFLSAYSSVNQGHCHPDILNAMINQAKKLTICSRAFFSDSLGVCERYLTNLFGYDKVLMMNTGAEASETAYKLCRKWGYEVKKIPENSAKIIVCNNNFSGRTLGCVSASTDKKCKNNFGPFVPNFLKVPYDDLEALEKELQDPNVCAFIVEPVQGEAGVIVPSDSYFPGVASLCKKYNVLFVADEVQTGLGRTGKLLCTHHYGVKPDVILLGKALSGGHYPISAILANDDVMLVLKPGEHGSTYGGNPLAAAICVEALKVLINEKLCENADKLGAPFLQNLKEQLKDSKVVREVRGKGLLCAIEFKNDLVNVWDICLKFKENGLITRSVHDKTVRLTPPLCITKEQLDECTEIIVKTVKFFDDNL | soluble
MPSAHSVKLRPLEREDLRYVHQLDNNASVMRYWFEEPYEAFVELSDLYDKHIHDQSERRFVVECDGEKAGLVELVEINHVHRRAEFQIIISPEYQGKGLATRAAKLAMDYGFTVLNLYKLYLIVDKENEKAIHIYRKLGFSVEGELMHEFFINGQYRNAIRMCIFQHQYLAEHKTPGQTLLKPTAQLEHHHHHH | not soluble
MGSDKIHHHHHHMKWTTPADLKAQVRKLWDRGLLLASLAGGEALFPRRLTLKSPDSRGLSERFPEVREWIAQLCSAAGFYRIEWRSVNHRVLGANEIPAAIWIDTLEEALGLIGKRRAADQFATLVELTRKKQPELVPWLAKRPLRALELSEDWPRLLEIVTWVLKHPRPAIYLRQIDLPGVHTKFIEGHRGVLAELLDLVLPGEAIDATHTGIGGFCRRYGFLDKPLRVRFRVLDRNIRLPAVESDQDITLTQASFASLDLPASKVFITENEINFLAFPDVPDAMVIFGAGYGFDNLAAAPWLHQRGIYYWGDIDTHGFAILNQLRGFFPHAVSFLMDLQTLLAHRSLWGVEKQPETGTLARLNSEESALYDQLRRNHWGERVRLEQERIGFGFLHDVLRRL | not soluble
MPRPSLRRGEETSGARSLHEIAPPAEKAVRKPLNLLPFRKDTPMTKDSYFHKSRAGVAGAPLFVLLHGTGGDENQFFDFGARLLPQATILSPVGDVSEHGAARFFRRTGEGVYDMVDLERATGKMADFIKANREHYQAGPVIGLGFSNGANILANVLIEQPELFDAAVLMHPLIPFEPKISPAKPTRRVLITAGERDPICPVQLTKALEESLKAQGGTVETVWHPGGHEIRSGEIDAVRGFLAAYGG | soluble
GSHMGKDCIMHGYMSKMGNPFLTQWQRRYFYLFPNRLEWRGEGEAPQSLLTMEEIQSVEETQIKERKCLLLKIRGGKQFILQCDSDPELVQWKKELRDAYREAQQLVQRVPKMKNKPRS | soluble
MGSDKIHHHHHHQSTGQVTLGVLTDMSSVYADSAGKGSVAAVQLAIEDVGGKALGQPVKLVSADYQMKTDVALSIAREWFDRDGVDAIFDVVNSGTALAINNLVKDKKKLAFITAAAADQIGGTECNGYGIGFLYNFTSIVKTVVQAQLAKGYKTWFLMLPDAAYGDLMNAAIRRELTAGGGQIVGSVRFPFETQDFSSYLLQAKASGAQLIVSTSGGAANINIMKQAREFGLPSKTQKVGGMIDILTDVKSAGLRVMQGQEYATSFYWNMDDRTRAFAKRFYAKMGKMPTNNQAGGYSAALQYLKAVNAIGSKDPQKVFAYLKTIKFDDAVTRHGTLRPGGRLVRDMYLVRAKKPEDQKGDWDYYDVVATIGPEQAFGPLSESRCAMDK | not soluble
MGSDKIHHHHHHEHKDLCYDHPHFATVRVVFDWTKISNHDKPEGMRVVFYPTDDESNTWIFDFPGGEDGEVELPENDYRVICFNYDTDGMVWKENGSYTLFTADTRDVRSPDNQTMAVTPPWLCGDHIDRVILKDIPEGSTKIIRLTPVNMVCHYTYEVNGIRGLDRVADLRAALSGMSGSLNMSGDSLPADLSESLLFDGMVSRNQIIGGFYTFGHSALEGEPNVFRLYLKNRSGSMSVLEQDVSDQVHDVPVAGHIGDVHLVLNFDYEVPSEPGSGGPGFDVDVDDWDDVNVDIVL | not soluble
MNAEIASEIVAEIPLWSQELPDTQEIIASLISSNLFPLIYTEQDYLEIANASAGLYISDIIHCLTDIRKNHDLGNSSEIAKLLLAKKIQLLNRLYDIEFLPPPKVQLGGLELMQQSFKKFKRLLTPRAKQYNLRVPKGIMLEHHHHHH | not soluble
MPPMRSKATQWLLSVWGLMDPLYYACSRLEYVGGKENGCRSIFRVRLLRYKGETIHLSDGTTIAANDWLLKIHLHNVRLLCELMQYRSDIQKGRYIFEQVKAGLPHVAHHLYHHEQSSSIKGIIGVTMLNKGCERLGFDVIDIANSFYRWFKMASHWPMMTVAQHRLVPLVRPPKYLVMSKEKLFSLYGCHLIH | not soluble
MGSDKIHHHHHHMSIVLKAIRFHRETDLFTDLNFEFPTGALTVLTGDSGSGKSTLLSLIAGYAAMPYEGTILLNGHDDRNAAMQVKAQHVGMMFQNPDQQFTMRTLSGELSFALENLNLPVAEIQRRFAQAVALGETQALLDRDLSTLSGGEKQRAALTVLLAMDAPILLLDEPFASIDPTSRHLLIGKLGTLRDHGKTIVIAEHDLTDYADVADQLVALKNGELSRLPLATLTTLPTHFNLTQPRQATNKIFHLENVVCQQNHHILLQAPSWDFNDGITTLTGANGSGKSTLLRSMVQRHPYQGRMFLGQQRLRRRKRLYQTMTLAVQDAAKQFVTLTLADELAFGPALPAAVREKQQAALAYLGLAEKQTTSLYQLSEGQKKMVQLMTMLSLDLSFLLLDEPFSGLDDRACQYFAAWIKAKSATQAFLIVTHRLAPLAGISQQQVLLANHRLQVVQG | not soluble
